Here are results for three molecules from patent publication US20040005630A1 (published 2004).

Positions count from the first letter of the chain named.

In experiment [1] the target is T1, rat CD5 antigen (rat equivalent of CD5) present on rat T cells (rat) (UniProt P51882).
T1 sequence (looked up): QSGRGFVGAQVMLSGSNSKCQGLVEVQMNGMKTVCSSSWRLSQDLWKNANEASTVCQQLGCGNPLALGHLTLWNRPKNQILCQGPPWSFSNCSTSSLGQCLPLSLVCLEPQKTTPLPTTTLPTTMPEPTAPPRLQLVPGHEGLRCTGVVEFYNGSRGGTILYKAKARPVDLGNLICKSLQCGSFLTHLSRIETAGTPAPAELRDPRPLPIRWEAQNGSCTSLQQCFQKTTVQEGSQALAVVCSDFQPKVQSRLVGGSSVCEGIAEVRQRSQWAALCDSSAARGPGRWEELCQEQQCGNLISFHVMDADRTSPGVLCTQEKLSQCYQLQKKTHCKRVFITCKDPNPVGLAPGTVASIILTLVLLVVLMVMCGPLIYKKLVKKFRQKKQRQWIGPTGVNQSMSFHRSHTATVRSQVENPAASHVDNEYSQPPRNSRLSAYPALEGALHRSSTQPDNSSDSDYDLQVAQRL
The experiment in a line: flow cytometry of rat lymph node cells 3 h after 0.5 mg/kg i.v., PE anti-mouse IgG1 detection.

The target of experiment [2] is T1, rat CD5 antigen (rat equivalent of CD5) present on rat T cells (rat). The experiment in a line: flow cytometry of rat spleen cells 3 h after 0.5 mg/kg i.v., PE anti-mouse IgG1 detection.
The target is the same in experiment [3]. Briefly: flow cytometry of rat blood cells 3 h after 0.5 mg/kg i.v., PE anti-mouse IgG1 detection.
Experiment [4] has the same target. Briefly: flow cytometry of rat lymph node cells 3 h after 0.5 mg/kg i.v., PE anti-mouse IgG1 detection (isotype matched negative control).
The target is the same in experiment [5]. Briefly: flow cytometry of rat blood cells 3 h after 0.5 mg/kg i.v., PE anti-mouse IgG1 detection (isotype matched negative control).
The target is the same in experiment [6]. The experiment in a line: flow cytometry of rat spleen cells 3 h after 0.5 mg/kg i.v., PE anti-mouse IgG1 detection (isotype matched negative control).
The target in experiment [7] is T2, human CD5 antigen (human, UniProt P06127 25-495).
T2 construct: whole, on cells; also called gp67; CD5 found on Molt-4M
T2 sequence (looked up): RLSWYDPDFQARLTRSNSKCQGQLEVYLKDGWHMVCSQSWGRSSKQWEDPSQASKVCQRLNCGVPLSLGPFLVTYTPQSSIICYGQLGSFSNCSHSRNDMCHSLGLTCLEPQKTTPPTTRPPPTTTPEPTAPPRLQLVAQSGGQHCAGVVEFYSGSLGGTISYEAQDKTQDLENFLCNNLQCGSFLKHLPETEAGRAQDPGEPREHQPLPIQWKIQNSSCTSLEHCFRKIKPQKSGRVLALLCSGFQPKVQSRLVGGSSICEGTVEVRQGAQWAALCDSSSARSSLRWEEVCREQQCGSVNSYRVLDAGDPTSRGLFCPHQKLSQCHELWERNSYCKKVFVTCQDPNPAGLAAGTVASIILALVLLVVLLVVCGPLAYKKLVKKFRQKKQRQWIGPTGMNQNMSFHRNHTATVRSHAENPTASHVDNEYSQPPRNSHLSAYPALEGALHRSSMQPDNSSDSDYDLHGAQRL
The experiment in a line: competitive binding on Molt4-M cells, single point at 0.54 nM, competitor 125I-cH65 IgG. The method, then:
Molt4-M cells, which express CD5 on their surface, were plated into 96 well V-bottom plates at a density of 3×10⁵ cells per well and pelleted by centrifugation. The medium was decanted, and 100 μl of purified cH65 IgG at final concentrations from 200 nM to 0.0017 nM (diluted in 3-fold steps) in “BHD” [DMEM (Dulbecco's Modified Eagle's Medium)+1% BSA+10 mM Hepes, pH 7.2] (BHD) was added to each well, followed by 100 μl of ¹²⁵I-cH65 IgG (final concentration=0.1 nM) in BHD. For single point determinations, 50-100 μl of the Centricon® concentrates were added to the wells as follows: hH65 (final concentration=0.54 nM), cH65 (final concentration=0.22 nM), CM+purified cH65 IgG (final concentration=30 nM) and CM alone. These were followed by addition of ¹²⁵I-cH65 IgG (final concentration=0.1 nM). Binding was allowed to proceed for 5 hours at 4° C. At the end of 5 hours, binding was terminated by three washes with ice cold BHD using centrifugation to pellet cells. Radioactivity was determined by solubilizing bound ¹²⁵I-cH65 IgG with 1N NaOH and counting in a Beckman Gamma 8000 (Beckman Instruments, Fullerton, Calif.).

Take OX19 MoAb (antibody): the % of CD4 cells that are also positive for mouse IgG1 worked out at 96.2% in experiment [1], 84.8% in experiment [2] and 96.2% in experiment [3]. For the same molecule, the % of CD8 cells that are also positive for mouse IgG1 in experiment [1] was 96.8%; in experiment [2], 73.6%; in experiment [3], 70.2%.

B1: MoAb H65 (murine monoclonal antibody produced by cell line XMMLY-H65) (antibody, V domains shown)
VH: QIQLVQSGPELKKPGETVKISCKASGYTFTNYGMNWVKQAPGKGLRWMGWINTHTGEPTYADDFKGRFAFSLETSASTAYLQINNLKNEDTATYFCTRRGYDWYFDVWGAGTTVTVSS
VL: DIKMTQSPSSMYASLGERVTITCKASQDINSYLSWFQQKPGKSPKTLIYRANRLVDGVPSRFSGSGSGQDYSLTISSLDYEDMGIYYCQQYDESPWTFGGGTKLEIK
As to B1, the % of CD4 cells that are also positive for mouse IgG1 was 4.2% in experiment [4], 6.7% in experiment [5] and 14.8% in experiment [6]. The % of CD8 cells that are also positive for mouse IgG1 in experiment [4] worked out at 6.5%; in experiment [5], 5.7%; in experiment [6], 20.6%.

B2: humanized H65 IgG (low-risk modified H65) (antibody, V domains shown)
VH: QIQLVQSGPGLKKPGGSVRISCAASGYTFTNYGMNWVKQAPGKGLRWMGWINTHTGEPTYADDFKGRFTFSLDTSKSTAYLQINSLRAEDTATYFCTRRGYDWYFDVWGQGTTVTVSS
VL: B1 VL with K3Q, Y12S, E17D, K24R, Q69T, S72T, D79Q, M83F
notes: Whole IgG transiently expressed in CHO-K1 from vectors pING4612 (heavy) and pING4614 (light); Human constant regions; also called hH65; H65 antibody modified according to the methods of the present invention
For the molecule B2, in experiment [7], the binding result is “binds”.
